{
  "source": "patent US20170369935",
  "system": "T1, peptide LPETGGG bridging variable regions 4 and 5 (var 4-LPETGGG-var 5)",
  "T1 sequence": "LPETGGG",
  "data": [
    {"substance": "sortase (Chen et. al, 2011)", "values": [
      {"measurement": "kligation (sortase-catalyzed transpeptidation, loop opening on gel, room temperature)", "value": "kligation=11±1.3 min"}
    ]}
  ]
}
